IntAct's records for PubMed 19118202

B1: P-selectin (Homo sapiens), P16109 (parent)
chain: MANCQIAILYQRFQRVVFGISQLLCFSALISELTNQKEVAAWTYHYSTKAYSWNISRKYCQNRYTDLVAIQNKNEIDYLNKVLPYYSSYYWIGIRKNNKTWTWVGTKKALTNEAENWADNEPNNKRNNEDCVEIYIKSPSAPGKWNDEHCLKKKHALCYTASCQDMSCSKQGECLETIGNYTCSCYPGFYGPECEYVRECGELELPQHVLMNCSHPLGNFSFNSQCSFHCTDGYQVNGPSKLECLASGIWTNKPPQCLAAQCPPLKIPERGNMTCLHSAKAFQHQSSCSFSCEEGFALVGPEVVQCTASGVWTAPAPVCKAVQCQHLEAPSEGTMDCVHPLTAFAYGSSCKFECQPGYRVRGLDMLRCIDSGHWSAPLPTCEAISCEPLESPVHGSMDCSPSLRAFQYDTNCSFRCAEGFMLRGADIVRCDNLGQWTAPAPVCQALQCQDLPVPNEARVNCSHPFGAFRYQSVCSFTCNEGLLLVGASVLQCLATGNWNSVPPECQAIPCTPLLSPQNGTMTCVQPLGSSSYKSTCQFICDEGYSLSGPERLDCTRSGRWTDSPPMCEAIKCPELFAPEQGSLDCSDTRGEFNVGSTCHFSCDNGFKLEGPNNVECTTSGRWSATPPTCKGIASLPTPGVQCPALTTPGQGTMYCRHHPGTFGFNTTCYFGCNAGFTLIGDSTLSCRPSGQWTAVTPACRAVKCSELHVNKPIAMNCSNLWGNFSYGSICSFHCLEGQLLNGSAQTACQENGHWSTTVPTCQAGPLTIQEALTYFGGAVASTIGLIMGGTLLALLRKRFRQKDDGKCPLNPHSHLGTYGVFTNAAFDPSP
partner: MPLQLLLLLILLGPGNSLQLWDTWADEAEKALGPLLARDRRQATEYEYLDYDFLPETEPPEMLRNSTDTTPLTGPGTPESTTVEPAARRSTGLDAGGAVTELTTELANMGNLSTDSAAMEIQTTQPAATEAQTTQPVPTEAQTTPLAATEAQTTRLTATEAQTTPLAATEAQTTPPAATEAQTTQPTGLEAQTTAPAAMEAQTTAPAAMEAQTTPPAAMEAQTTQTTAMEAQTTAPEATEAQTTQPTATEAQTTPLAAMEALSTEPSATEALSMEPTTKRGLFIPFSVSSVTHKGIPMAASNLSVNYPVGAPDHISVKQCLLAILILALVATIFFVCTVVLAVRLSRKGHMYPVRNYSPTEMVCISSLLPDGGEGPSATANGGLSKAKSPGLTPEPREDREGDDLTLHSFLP

Variants of: B1
Conditions: with selpl_human SELPLG

| Variant | effect of a mutation on the interaction |
| --- | --- |
| A69H | increasing interaction |
